Changes are numbered by the printed parent chain. Each block holds one binder with its values, some of them ahead of it.
Columns and labels:
[1] = target: T1, human ApoC3 (huApoC3), native protein purified from human serum (human, UniProt P02656 21-99); assay: cell-based or functional assay
[2] = target: T1, human ApoC3 (huApoC3), native protein …; assay: SPR Biacore, huApoC3 on chip, scFv-Fc as analyte
Protocol: This example describes characterization of anti-ApoC3 antibodies regarding their affinity to ApoC3 under neutral conditions using an SPR-based assay using a Biacore 3000 instrument (Biacore AB). Native huApoC3 protein was immobilized on a CM5 chip. The immobilization was performed in accordance with the method provided by Biacore using the NHS/EDC kit (Biacore AB): after activation of the chip, a solution of 60 μg/ml of human ApoC3 in 10 mM acetate buffer with pH of 4.5 was prepared and injected until the surface density reached approximately 1000 RU. Capturing of the human ApoC3 on the streptavidin coated chip (SA) was performed at pH 7.4 in accordance with a method provided by Biacore via injection of 20 μl 10 μg/ml biotinylated human ApoC3 thereby reaching the surface density of approximately 500 RU. […] After the dissociation, the flow cell surfaces were regenerated by injecting 10 μl of 10 mM […]/1 M NaCl and 10 μl of 10 mM glycine at pH1.5. The resulting sensorgrams were analyzed using the BIAevaluation 4.1 software using Langmuir 1:1 binding model to derive binding kinetics. Data was zero adjusted and the reference cell sensorgrams were subtracted.
A number of scFv-Fc antibodies were examined in this assay. The association rate (ka), dissociation rate (kd), analyte binding capacity (Rmax), equilibrium association constant (KA) and equilibrium dissociation constant (KD) of these antibodies are shown in Table 5.

T1 sequence (P02656 21-99): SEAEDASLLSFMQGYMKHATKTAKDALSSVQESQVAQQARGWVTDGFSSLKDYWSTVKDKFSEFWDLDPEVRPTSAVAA

- attenuation of the ability of ApoC3 to inhibit VLDL uptake by HepG2 cells [1]: ~100%
B1: 12C12 scFv-Fc (Fc fusion)
VH: EVQVQESGPGLVKPSQTLSLTCTVSGGSITTSYYAWTWIRQPPGKGLEWVGAIVYDGSTFYSPSLKSRTSISRDTSKSQFSLQLSSVTPEDTAVYYCARSYGLGLYDLWGQGTQVTVSS
VL: QAVLTQPPSVSGSPGQKFTISCTGSSSNIGDNYVNWYQHLPGTAPKLLIYSNSNRASGVPDRFSGSKSGSSASLTITGLQAEDEADYYCSSWDDSLSGVVFGGGTHLTVL

- Ka [2]: 4.16e+09 M⁻¹
- Kd [2]: 0.24 nM
- koff [2]: 0.000675 s⁻¹
- kon [2]: 2.81e+06 M⁻¹ s⁻¹
B2: 8B7 scFv-Fc (Fc fusion)
VH: EVQVQESGPGLVKPSQTLSLTCTVSGASITNRRYAWTWIRQPPGKGLEWMGVIVYDGNTHVSPSLRSRTSISRDTSKNQFSLQLSSLTPEDTAVYYCARVLLLRDPLSLDYWGQGTQVTVSS
VL: SSALTQPPSMSGTLGKTLTISCAGTSSDIGAYNFVSWYQQLPGTAPKLLIYDIDKRASGIPDRFSGSKSGNTASLSISGLQSEDEADYYCAAYGSRDNVVFGGGTHLTVL
notes: scFv-Fc format

- Ka [2]: 3.87e+09 M⁻¹
- Kd [2]: 0.258 nM
- koff [2]: 0.00067 s⁻¹
- kon [2]: 2.59e+06 M⁻¹ s⁻¹
B3: 7A9 scFv-Fc (Fc fusion)
VH: B2 VH
VL: B2 VL
notes: scFv-Fc format

- Ka [2]: 2.08e+09 M⁻¹
- Kd [2]: 0.48 nM
- koff [2]: 0.000647 s⁻¹
- kon [2]: 1.35e+06 M⁻¹ s⁻¹
B4: 5A7 scFv-Fc (Fc fusion)
VH: B2 VH
VL: B2 VL
notes: scFv-Fc format

- attenuation of the ability of ApoC3 to inhibit VLDL uptake by HepG2 cells [1]: ~95%
B5: 13C7 scFv-Fc (Fc fusion)
VH: QLQLVESGGGLVQPGGSLRLSCAASGGTFSRYYMSWVRQAPGKGLEWVSSIYKDGSNTYYADSVKGRFTISRDNAKNTLYLQMNSLKSEDTAVYYCAKALRAEYDYWGQGTQVTVSS
VL: NFMLTQPPSVSGTLGKTVTISCAGTSSDIGGYNYVAWYQQLPGTAPKLLISEVNKRASGIPDRFSGSKSGNTASLSISGLQSEDEADYYCASYRSSNSYVFGGGTKLTVL

- EC50, attenuation of ApoC3-mediated LPL inhibition (NEFA production) [1]: ~3 µM
B6: 13G7 IgG1 (antibody, V domains shown)
VH: QVQLQESGPGLVKPSQTLSLTCTVSGGSISTTAPAWGWIRQSPGKGLDWMAVIAFDGSAYYSPSLKSRTLISRDTSKNQFSLQLSSVTPEDTAVYYCARLGGRNYPPYVELWGQGTLVTVSS
VL: QPVLTQPPALSVTLGQTAKITCQGGSLRVSYAHWYQQKPGQAPVLVSYDDDSRPSGIPERFSGSGSGATATLTISGAQAEDEGDYYCQSADSSGDNWVFGGGTHLTVL

- attenuation of the ability of ApoC3 to inhibit VLDL uptake by HepG2 cells [1]: ~100%
B7: 13G7 scFv-Fc (Fc fusion)
VH: B6 VH
VL: B6 VL

- attenuation of the ability of ApoC3 to inhibit VLDL uptake by HepG2 cells [1]: ~100%
B8: 14C7 scFv-Fc (Fc fusion)
VH: QVQVQESGPGLVKPSQTLSLTCTVSGGSITTNSYYWSWIRQPPGKGLEWMGAIDYSGDTYYSPSLKSRTSISRDTSKNQFTLQLTSVTPEDTAVYYCVSRIPTGEYWGQGTQVTVSS
VL: QTVVTQEPSLSVSPGGTVTLTCGLNSGSVTSSNYPDWYQQTPGQAPRLLIYNTNSRHSGVPSRFSGSISGNKAALTITGAQPEDEADYYCALYMGSDSVVFGGGTHLTVL

- Ka [2]: 5.89e+08 M⁻¹
- Kd [2]: 1.7 nM
- koff [2]: 0.000207 s⁻¹
- kon [2]: 122000 M⁻¹ s⁻¹
B9: 11H1 scFv-Fc (Fc fusion)
VH: ELQLVESGGGLVQPGGSLRLSCAASGFTFSSYSMRWVRQAPGKGLEWLSSIKSDGSITSYADSVKGRFTMSRDNAKNTLYLQMNSLKSEDTAMYYCTNQGYINWGQGTQVTVSS
VL: ATMLTQSPGSLTIVPGESASISCRASQSLIHSAGKTYFYWLLQKPGQRPQLLIYQVSNRESGVPDRFTGSGSGTDFTLKISGVKAEDAGVYYCAQGTYNPKTFGQGTKLEIK
notes: scFv-Fc format

- attenuation of the ability of ApoC3 to inhibit VLDL uptake by HepG2 cells [1]: ~85%
B10: 12C3 scFv-Fc (Fc fusion)
VH: ELQLVESGGGLVQPGGSLRLSCAASGFTFSSYSMFWVRQSPGKGLERVSGINGGGDRSNYADSVRDRFTISRDNAKNTLYLQMNSLKSEDTAVYYCVIQGYAYWGQGTQVTVSS
VL: DVVLTQTPASLSVVPGESASISCKASQSLVHSDGKTYLYWLLQKPGQSPQRLIYQTSNRGSGVPDRFTGSGSGTDFTLDISGVKAEDAGVYYCAQATYSPHTFGSGTRLEIK

- attenuation of the ability of ApoC3 to inhibit VLDL uptake by HepG2 cells [1]: ~60%
B11: 12D4 scFv-Fc (Fc fusion)
VH: QLQLVESGGGLVQPGGSLRVSCAASGFTFSSSNMRWVRQVSGKGLEWVSTISPDGGKTLYADSVKGRFTISRDNAKNTLHLQMVSLKPEDTALYYCVKAGYDYWGQGTQVTVSS
VL: B10 VL with D1A, V2T, V3M, T7S, A9G, T56V, R59Q, D79K, S99A, T102S

- attenuation of the ability of ApoC3 to inhibit VLDL uptake by HepG2 cells [1]: ~100%
B12: 14G4 scFv-Fc (Fc fusion)
VH: QVQLVESGGGLVQPGGSLRLSCAASGFAFSRYTMNWVRQAPGKGLEWLSAISPDGGKTIDADSVKGAFASSRDNTMNTLYLDMNSLKPEDAAVYYCVAGHNMDYWGKGILVTVSS
VL: B10 VL with A9G, T56V, R59Q, D79K, S99T, H101R, S105Q, R108T, I111V

- attenuation of the ability of ApoC3 to inhibit VLDL uptake by HepG2 cells [1]: ~60%
B13: 8B4 scFv-Fc (Fc fusion)
VH: ELQLVESGGGLVQPGGSLRLSCAASGFTFSNAYLYWVRQVPGKGLEWVSGINPAGDGRAYATSVKGRFTISRDNAKNTLYLQMNTLESDDTAVYYCATASRVVAYDSWGQGTQVTVSS
VL: EIVLTQSPSSVTASVGEKVTINCKSSQSVESGSDQKSYLNWYQQRPGQSPRLLIYYASTQESGIPDRFSGSGSTTDFTLTISSVQPEDAAVYYCQQAYSAPFTFGQGTKVELK

- attenuation of the ability of ApoC3 to inhibit VLDL uptake by HepG2 cells [1]: ~60%
B14: 12D1 scFv-Fc (Fc fusion)
VH: QLQLVESGGGLVQPGGSLRLSCAASGFTFGTYSMRWVRQVPRKALEWVSSISTDGGGTAYRDSVKGRFTISRDNAKNTLYLQMNNLKPEDTAIYYCVIAGYSDWGQGTQVTVSS
VL: SALDVVLTQTPGSLSVVPGESASISCKTSQSLTHSDGKTYLYWLLQKPGQSPQRLIYQVSNRGSGVPDRFTGSGSGTDFTLKISGVKAEDAGMYYCAQATYYPHTFGSGSRLEIER

- EC50, attenuation of ApoC3-mediated LPL inhibition (NEFA production) [1]: > 5 µM
B15: 5E5 IgG1 (antibody, V domains shown)
VH: B14 VH
VL: ATMLTQSPGSLSVVPGESASISCKTSQGLVHSDGKTYFYWFLQKPGQSPQQLIYQVSNRASGVPDRFTGSGSGTDFTLKISGVKAEDAGVYYCAQGTYYPHTFGSGTRLEIK

- attenuation of the ability of ApoC3 to inhibit VLDL uptake by HepG2 cells [1]: ~100%
B16: 12A3 scFv-Fc (Fc fusion)
VH: ELQLVESGGGLVQSGGSLRLSCAASGFTFSNYAMRWVRQAPGGRLEWVSSINIAGSSVVYADSVKGRFTISRDNAKNTLYLQMNSLKSEDTAVYYCAMQGFVYWGQGTQVTVSS
VL: DVVLTQTPGSLSVVPGESANISCKAGRSLVHSDGRTYLYWLLQKPGQSPQRLIYQVSNRSSGVPDRFTGSGSGTDFTLKITGVKAEDAGVYYCAQGTYYPVTFGQGTKVELK

- attenuation of the ability of ApoC3 to inhibit VLDL uptake by HepG2 cells [1]: ~60%
B17: 14C4 scFv-Fc (Fc fusion)
VH: QLQLVESGGGLVQPGGSLRLSCAASGFTFGNYDMSWVRQAPGKGPEWVSVINSDGDGTYYVDSVKGRFTISRDNAKNTLYLQMNSLKPEDRAVYYCAIANLGLWGQGTLVTVSS
VL: ATMLTQSPGSLSVVPGESASISCKATQSLVHSDGKTYLSWLLQKPGQSPQRLIYQVSNRGSGVPDRFTGSGSGTDFTLKISGVKAEDAGVYYCAQAPYWTFGQGTKLEIK

- attenuation of the ability of ApoC3 to inhibit VLDL uptake by HepG2 cells [1]: ~40%
B18: 12E12 scFv-Fc (Fc fusion)
VH: EVQLVESGGDLVQPGGSLRVSCAASGLTFSNIYMSWVRQAPGKGLEWVSAINTAGTVTYYADSVKGRFTISRDNAKNTLYLQMNSLKPEDTAHYYCTTGEVDWGKGTLVTVSS
VL: QTVVTQEPSLSVSPGGTVTLTCGLSSGSVTSVTYPGWYQQKPGQAPRTLIYNTNSRFSGVPNRFSGSISGNKAALTITGALPEDEADYYCSVYIGGGIYPAVFGGGTHLTVL

Reference: US20190241648A1 (STATEN BIOTECHNOLOGY B V, published 2019)
